T1: human TNFR2 expressed on cells (Expi293 cells stably expressing huTNFR2) (human, UniProt P20333 23-461)
T1 construct: whole, on cells; Also used here as the target of the Treg assay (native TNFR2 on human primary Treg cells); also called huTNFR2 expressed cells; Expi293-TNFR2 cells
T1 sequence (looked up): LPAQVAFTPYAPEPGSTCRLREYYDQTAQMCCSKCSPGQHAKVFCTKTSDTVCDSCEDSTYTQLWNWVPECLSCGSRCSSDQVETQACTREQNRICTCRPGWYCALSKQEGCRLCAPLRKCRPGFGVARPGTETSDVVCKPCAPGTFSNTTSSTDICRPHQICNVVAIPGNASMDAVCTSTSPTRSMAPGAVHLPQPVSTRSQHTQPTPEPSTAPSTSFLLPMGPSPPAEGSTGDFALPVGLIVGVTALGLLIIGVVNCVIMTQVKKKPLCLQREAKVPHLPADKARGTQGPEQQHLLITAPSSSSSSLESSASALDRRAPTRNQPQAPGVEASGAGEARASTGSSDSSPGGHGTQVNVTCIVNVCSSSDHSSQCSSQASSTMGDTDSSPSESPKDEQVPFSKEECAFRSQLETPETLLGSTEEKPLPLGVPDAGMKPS

T2: human TNFR2 extracellular domain fused to human IgG1 Fc (human, UniProt P20333 23-257)
T2 construct: also called TNFR2-huFc; huTNFR2; not shown: C-terminal human IgG1 Fc
T2 sequence: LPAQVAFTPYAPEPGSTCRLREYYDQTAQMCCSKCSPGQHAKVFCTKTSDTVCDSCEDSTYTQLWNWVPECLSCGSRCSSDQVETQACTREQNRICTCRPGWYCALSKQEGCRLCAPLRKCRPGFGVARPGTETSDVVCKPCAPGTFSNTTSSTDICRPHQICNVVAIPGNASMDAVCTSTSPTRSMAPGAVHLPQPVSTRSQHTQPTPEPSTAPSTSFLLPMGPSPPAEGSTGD

T3: cynomolgus monkey TNFR2 extracellular domain as used in the blocking ELISA (cynomolgus monkey, UniProt P20333 23-257 (human entry))
T3 construct: also called cynoTNFR2
T3 chain: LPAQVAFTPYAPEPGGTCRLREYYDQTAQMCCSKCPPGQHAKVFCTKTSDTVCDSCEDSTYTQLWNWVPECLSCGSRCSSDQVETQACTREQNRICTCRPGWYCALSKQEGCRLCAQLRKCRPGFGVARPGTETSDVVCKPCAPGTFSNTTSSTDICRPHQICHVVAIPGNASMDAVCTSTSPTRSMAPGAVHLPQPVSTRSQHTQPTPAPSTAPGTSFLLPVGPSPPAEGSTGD


Assays:
[1] = target: T1, human TNFR2 expressed on cells (Expi293 …); experiment: flow cytometry on Expi293 cells stably expressing huTNFR2
Procedure: The coding sequence of huTNFR2 (Uniprot, P20333) was cloned into a lentiviral vector and the virus was packaged according to the instruction of the virus packaging kit (Lenti-X™ Packaging Single Shots, Cat #631275, Takada). The Expi293 cells were transduced with the recombinant virus and selected by puromycin. The cell line stably expressing huTNFR2 was incubated with anti-TNFR2 antibodies in PBS with 0.5% BSA, 1 mM EDTA, and 0.1% sodium azide (FACS buffer) for 30 minutes at 4° C. The cells were washed, and then incubated with 10 nM phycoerythrin (PE) conjugated anti-Human Fe Ab (Biolegend, cat #409304) for 20 minutes at 4° C. Cells were washed and then […] by flow cytometry with Attune (ThermoFisher Scientific). Data were analyzed with FlowJo software. Antibody binding is represented as median fluorescence intensity (MFI).
As shown by the results in Table 9 and FIG. 4A, the anti-TNFR2 antibodies, 51B5, 102E4, 85G8.4, 29G3, 11C1, and 15H10 bind to Expi293-TNFR2 cells dose-dependently and potently.

[2] = target: T2, human TNFR2 extracellular domain fused …; experiment: blocking ELISA: antibody pre-mixed with huTNFR2, binding of huTNFR2 to coated human TNFα read out
Procedure: (§1) 96-well round bottom ELISA plates were coated overnight at 4° C. with 50 μL/well of 0.5 μg/mL human TNFα recombinant protein (R&D system, Cat #210-TA-100) in coating buffer. After removing the coating solution, blocking buffer was added into the plates followed by incubation at room temperature for 1 hour in order to block unspecific binding. During the blocking period, hybridoma antibodies samples were mixed with 0.5 μg/mL TNFR2-huFc at a 1:1 volume ratio and incubated at room temperature for another 1.5 hours. Then 50 μL/well of antigen-antibody mix solution was transferred into TNFα coated wells and incubated at room temperature for 1.5 hours. Plates were then washed 5 times with wash buffer. Then, 50 μL/well of goats anti-human IgG Fc-AP (Southern Biotech, cat #2014-04) at 1:2000 dilution in assay buffer was added, incubated at room temperature for 1 hour, washed 4 times with wash buffer and developed for 30 minutes with 50 μL/well of pNPP substrate. Plates were analyzed with a Synergy HT (Bio-TEK) at 405 nm. Parental hybridomas with the desired human and cynoTNFR2 binding as well as the ability to block human TNFR2 and human TNFα binding were prioritized for subcloning and further characterization. Subcloning was carried out with limited dilution and visual inspection was performed to ensure clonality. Hybridoma subclones were screened with the same binding and blocking assays and selected positive hits were cryopreserved.
(§2) TNFR2 blocking by purified recombinant chimeric antibodies: Human TNFR2 blocking ELISA was performed on purified recombinant chimeric antibodies following the same protocol as described above, except that 50 μL/well of serial dilution of purified antibodies (starting at 10 μg/mL, 1:3 dilution) in assay buffer was added into the reaction. The blocking IC₅₀ value represents the antibody concentration that inhibited 50% of huTNFR2 or cynoTNFR2 binding to coated human TNFα or cynomolgus monkey TNFα.

[3] = target: T1, human TNFR2 expressed on cells (Expi293 …); experiment: flow cytometry: inhibition of binding of 10 nM Alexa Fluor 647 human TNFα to Expi293 cells expressing huTNFR2
Procedure: Expi293 cells stably expressing huTNFR2 were incubated with anti-TNFR2 antibodies for 30 minutes at 4° C. […] Cells were washed and acquired by flow cytometry with Attune. Data were analyzed with FlowJo software. TNFα binding is represented as MFI.
As shown in Table 10 and FIG. 4B, the anti-TNFR2 chimeric antibodies, 51B5, 85G8.4, 29G3, 11C1, and 15H10 inhibited soluble TNFα binding to TNFR2-expressing Expi293 cells dose-dependently and potently.

[4] = target: T3, cynomolgus monkey TNFR2 extracellular …; experiment: blocking ELISA: antibody pre-mixed with cynoTNFR2, binding of cynoTNFR2 to coated cynomolgus monkey TNFα read out
Procedure: as §1, §2

| EC50 [1] [nM] | IC50 [2] [nM] | IC50 [3] [nM] | IC50 [4] [nM] | Binder |
| --- | --- | --- | --- | --- |
| 1.47 | 0.583 | 1.57 | 1.02 | 85G8.4 chimeric anti-TNFR2 antibody (antibody, V domains shown, Chimeric: mouse variable domains with human constant regions, made as recombinant IgG1) VH: EVQLQQSGPELVKPGASVKISCKTSGYTFTDFNMDWVKQSHGKSLEWIGYINPNNGDAAYNQKFKSKATLTVDKSSNTAYMELHSLTSDDSAVYYCARWGWAFAYWGQGTLVTVSA VL: DIVMTQSHKIMSTSVGDRVSITCKASQDVKTAVAWYQQKPGQSPKLLIYATSYRYTGVPDRFTGSGSGTDFTFTISTVQAEDLAVYYCQQHYSIPYTFGGGTKLEIK |
| 2.52 | 0.584 | 3.37 | 1.01 | 15H10 chimeric anti-TNFR2 antibody (antibody, V domains shown, Chimeric: mouse variable domains with human constant regions, made as recombinant IgG1) VH: DVQLQESGPGLVTPSQSLSLTCSVTGYSITSGYYWNWIRQFPGNKLEWMGYITYDGNNNYNPSLKSRFSITRDTSKNQFFLKLNSVTSEDTATYYCARGDYGDSAMDYWGQGTSVTVSS VL: EIVLTQSPAITAASLGQKVTITCSASSGVNYMHWYQQKSGTSPKPWIYEISKLASGVPARFSGSGSGTSYSLTISSMEAEDAAIYYCQQWNYPLITFGAGTKVELK |
| 2.04 | 0.723 | 2.51 | 1.09 | 11C1 chimeric anti-TNFR2 antibody (antibody, V domains shown, Chimeric: mouse variable domains with human constant regions, made as recombinant IgG1) VH: DVQLRESGPGLVTPSQSLSLTCSVTGYSITSGYYWNWIRQIPGNKLEWMGYITYDGNNNYDPSLKNRISITRDTSKNQFFLTLNSVTSEDTATYYCARGDYGDSAMDYWGQGTSVTVSS VL: EIVLTQSPAITAASLGQKVTITCSASSSVSYMHWYQQKSGTSPKPWIYEISKLASGVPARFSGSGSGTSYSLIISSMEAEDAAIYYCQQWNYPLITFGAGTKLELK |
| 0.654 | 0.505 | 0.275 | 0.927 | 29G3 chimeric anti-TNFR2 antibody (antibody, V domains shown, Chimeric: mouse variable domains with human constant regions, made as recombinant IgG1) VH: EVMLVESGGASVKPGGSLKLSCAASGFTFSNFAMSWVRQTPEKRLEWVATIRSGDNYSYYSDNVKGRFTISRDNARNTLYLQMSSLRSKDTSIYYCARNWDKVFDYWGQGTTLTVSS VL: DIVLTQSPASLAVSLGQRATISCRASESVDSYGYSFMHWYQQKPGQPPKLLIYRASNLKSGIPARFSGSGSRTDFTLTINPVEADDVATYYCQQSNEDHTFGGGTKLEIK |
